Assay results as given in paper PMC4237994.

T1: Isl-1-Myc (UniProt P61372 1-349)
T1 sequence: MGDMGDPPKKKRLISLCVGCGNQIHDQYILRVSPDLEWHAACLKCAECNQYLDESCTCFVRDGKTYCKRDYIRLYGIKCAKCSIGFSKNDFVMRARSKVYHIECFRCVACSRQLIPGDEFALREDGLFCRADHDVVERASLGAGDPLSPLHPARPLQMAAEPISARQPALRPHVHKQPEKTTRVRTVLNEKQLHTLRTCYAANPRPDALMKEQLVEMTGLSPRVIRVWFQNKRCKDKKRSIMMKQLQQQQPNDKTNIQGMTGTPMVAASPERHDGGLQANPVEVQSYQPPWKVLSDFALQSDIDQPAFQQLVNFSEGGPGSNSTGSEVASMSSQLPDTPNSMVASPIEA

B1: Pdx1 Area II-3 (dsDNA)
DNA 1: AATGCATGCAATTAGACCAGAAGTGCTAA
DNA 2: TTAGCACTTCTGGTCTAATTGCATGCATT
B2: Pdx1 Area IV-4 (dsDNA)
DNA 1: TTATTGCCTGCCTTTAATTGTACTTAT
DNA 2: ATAAGTACAATTAAAGGCAGGCAATAA
B3: Pdx1 Area I-4 (dsDNA)
DNA 1: GTATCACCCATAATGGATTTAGCCACCT
DNA 2: AGGTGGCTAAATCCATTATGGGTGATAC

The binders below were run against T1, Isl-1-Myc (assay: competition).

Binding result, binds:
B1, B2, B3
